From patent publication US20120264685A1 (priority 2009, published 2012)
Blank lines part the entries; values can stand above or below the binder they belong to. Where no end group is shown, it is not given here. [ ]: non-standard residue; d: D form. Bip(2'-Et-4'-OMe) = CCc1cc(OC)ccc1-c1ccc(C[C@H](N)C(=O)O)cc1; αMePhe(2,6-F2) = C[C@](N)(Cc1c(F)cccc1F)C(=O)O; αMePhe(2-F) = C[C@](N)(Cc1ccccc1F)C(=O)O; αMeBip(OMe) = alpha-methylated Bip(OMe); hhPhe = N[C@@H](CCCc1ccccc1)C(=O)O; αMeD = C[C@](N)(CC(=O)O)C(=O)O; αMeP = C[C@@]1(C(=O)O)CCCN1; αMeAPPA = not defined here; αMeS = C[C@](N)(CO)C(=O)O; Ac3c = NC1(C(=O)O)CC1; Aib = CC(C)(N)C(=O)O

How the values were obtained:
human GLP-1 receptor = human GLP-1 receptor (human, UniProt P43220 24-463); experiment: cell-based or functional assay
human glucagon receptor = human glucagon receptor (human, UniProt P47871 26-477); experiment: cell-based or functional assay
human glucagon receptor, sequence (P47871 26-477): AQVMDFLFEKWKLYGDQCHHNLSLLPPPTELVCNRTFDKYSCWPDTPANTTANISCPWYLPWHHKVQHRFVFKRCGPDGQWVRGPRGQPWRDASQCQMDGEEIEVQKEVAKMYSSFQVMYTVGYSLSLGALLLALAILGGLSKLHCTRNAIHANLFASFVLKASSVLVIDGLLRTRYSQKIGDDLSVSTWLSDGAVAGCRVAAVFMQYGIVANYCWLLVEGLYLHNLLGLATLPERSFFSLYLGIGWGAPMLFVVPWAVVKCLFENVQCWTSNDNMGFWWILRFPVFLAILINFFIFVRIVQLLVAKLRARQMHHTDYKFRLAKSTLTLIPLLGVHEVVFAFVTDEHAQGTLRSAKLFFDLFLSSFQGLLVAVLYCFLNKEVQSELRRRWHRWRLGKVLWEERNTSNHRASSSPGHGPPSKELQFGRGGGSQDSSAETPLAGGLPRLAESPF

B2: Seq. ID. No. 26 (peptide)
peptide: VHAQGT[αMePhe(2,6-F2)]TSD[αMeBip(OMe)][hhPhe]-NH2
- cAMP release, % activity with respect to control, at 1 nM (human GLP-1 receptor): 99 % of control
- cAMP release, % activity with respect to control, at 10 nM (human GLP-1 receptor): 99 % of control
- cAMP release, % activity with respect to control, at 100 nM (human GLP-1 receptor): 99 % of control
- cAMP release, % activity with respect to control, at 1 µM (human GLP-1 receptor): 99 % of control
- cAMP release, % activity with respect to control, at 10 µM (human GLP-1 receptor): 99 % of control

B3: Seq. ID. No. 14 (peptide)
peptide: VH[αMeP]EGTFTSD[αMeBip(OMe)][hhPhe]
modifications: not fully specified (C-terminus); printed as VH-(αMe-Pro)-EGTFTSD-(αMe-Bip(OMe))-(APPA)
- cAMP release, % activity with respect to control, at 1 nM (human GLP-1 receptor): 55 % of control
- cAMP release, % activity with respect to control, at 10 nM (human GLP-1 receptor): 89 % of control
- cAMP release, % activity with respect to control, at 100 nM (human GLP-1 receptor): 93 % of control
- cAMP release, % activity with respect to control, at 1 µM (human GLP-1 receptor): 99 % of control
- cAMP release, % activity with respect to control, at 10 µM (human GLP-1 receptor): 99 % of control

B4: Seq. ID. No. 34 (peptide)
peptide: VHAQGTFT[αMeS]D[αMeBip(OMe)][hhPhe]-NH2
- cAMP release, % activity with respect to control, at 1 nM (human GLP-1 receptor): 99 % of control
- cAMP release, % activity with respect to control, at 10 nM (human GLP-1 receptor): 99 % of control
- cAMP release, % activity with respect to control, at 100 nM (human GLP-1 receptor): 99 % of control
- cAMP release, % activity with respect to control, at 1 µM (human GLP-1 receptor): 99 % of control
- cAMP release, % activity with respect to control, at 10 µM (human GLP-1 receptor): 99 % of control

B7: Seq. ID. No. 13 (peptide)
peptide: VH[Aib]EGTFTSD[αMeBip(OMe)][hhPhe]
modifications: not fully specified (C-terminus); printed as VH-Aib-EGTFTSD-(αMe-Bip(OMe))-(APPA)
- cAMP production (pmol/ml/µg prt) with saturated glucagon peptide, at 1 nM (human glucagon receptor): 20 pmol/ml/µg prt
- cAMP production (pmol/ml/µg prt) with saturated glucagon peptide, at 10 nM (human glucagon receptor): 18 pmol/ml/µg prt
- cAMP production (pmol/ml/µg prt) with saturated glucagon peptide, at 100 nM (human glucagon receptor): 16 pmol/ml/µg prt
- cAMP production (pmol/ml/µg prt) with saturated glucagon peptide, at 1 µM (human glucagon receptor): 14 pmol/ml/µg prt
- cAMP production (pmol/ml/µg prt) with saturated glucagon peptide, at 10 µM (human glucagon receptor): 12 pmol/ml/µg prt

B10: Seq. ID. No. 16 (peptide)
peptide: VH[Ac3c]EGTFTSD[αMeBip(OMe)][hhPhe]
modifications: not fully specified (C-terminus)
- cAMP release, % activity with respect to control, at 1 nM (human GLP-1 receptor): 99 % of control
- cAMP release, % activity with respect to control, at 10 nM (human GLP-1 receptor): 99 % of control
- cAMP release, % activity with respect to control, at 100 nM (human GLP-1 receptor): 99 % of control
- cAMP release, % activity with respect to control, at 1 µM (human GLP-1 receptor): 99 % of control
- cAMP release, % activity with respect to control, at 10 µM (human GLP-1 receptor): 99 % of control

B11: Seq. ID. No. 18 (peptide)
peptide: VHAQGT[αMePhe(2-F)]TSD[αMeBip(OMe)][hhPhe]
modifications: not fully specified (C-terminus); printed as VHAQGT-(αMe-2FPhe)-TSD-(αMe-Bip(OMe))-(APPA)
- cAMP release, % activity with respect to control, at 1 nM (human GLP-1 receptor): 99 % of control
- cAMP release, % activity with respect to control, at 10 nM (human GLP-1 receptor): 99 % of control
- cAMP release, % activity with respect to control, at 100 nM (human GLP-1 receptor): 99 % of control
- cAMP release, % activity with respect to control, at 1 µM (human GLP-1 receptor): 99 % of control
- cAMP release, % activity with respect to control, at 10 µM (human GLP-1 receptor): 99 % of control

B12: Seq. ID. No. 17 (peptide)
peptide: VHSQGT[αMePhe(2-F)]TSD[αMeBip(OMe)][hhPhe]
modifications: not fully specified (C-terminus); printed as VHSQGT-(αMe-2FPhe)-TSD-(αMe-Bip(OMe))-(APPA)
- cAMP production (pmol/ml/µg prt) with saturated glucagon peptide, at 1 nM (human glucagon receptor): 6 pmol/ml/µg prt
- cAMP production (pmol/ml/µg prt) with saturated glucagon peptide, at 10 nM (human glucagon receptor): 5 pmol/ml/µg prt
- cAMP production (pmol/ml/µg prt) with saturated glucagon peptide, at 100 nM (human glucagon receptor): 2 pmol/ml/µg prt
- cAMP production (pmol/ml/µg prt) with saturated glucagon peptide, at 1 µM (human glucagon receptor): 0 pmol/ml/µg prt
- cAMP production (pmol/ml/µg prt) with saturated glucagon peptide, at 10 µM (human glucagon receptor): 0 pmol/ml/µg prt

Results, then the binder that gave them:

- cAMP release, % activity with respect to control, at 1 nM (human GLP-1 receptor): 69 % of control
- cAMP release, % activity with respect to control, at 10 nM (human GLP-1 receptor): 98 % of control
- cAMP release, % activity with respect to control, at 100 nM (human GLP-1 receptor): 99 % of control
- cAMP release, % activity with respect to control, at 1 µM (human GLP-1 receptor): 99 % of control
- cAMP release, % activity with respect to control, at 10 µM (human GLP-1 receptor): 99 % of control
B1: Seq. ID. No. 79 (peptide)
peptide: VH[Aib]EGT[αMePhe(2,6-F2)]TS[αMeD][αMeBip(OMe)][hhPhe]
modifications: not fully specified (C-terminus)

- cAMP release, % activity with respect to control, at 1 nM (human GLP-1 receptor): 40 % of control
- cAMP release, % activity with respect to control, at 10 nM (human GLP-1 receptor): 81 % of control
- cAMP release, % activity with respect to control, at 100 nM (human GLP-1 receptor): 87 % of control
- cAMP release, % activity with respect to control, at 1 µM (human GLP-1 receptor): 95 % of control
- cAMP release, % activity with respect to control, at 10 µM (human GLP-1 receptor): 98 % of control
B5: Seq. ID. No. 84 (peptide)
peptide: VH[αMeP]QGTFTSD[Bip(2'-Et-4'-OMe)][αMeAPPA]
modifications: not fully specified (C-terminus); printed as VH-(αMe-Pro)-QGTFTSD-Bip(OMe)-(αMe-APPA); reading uncertain

- cAMP release, % activity with respect to control, at 1 nM (human GLP-1 receptor): 39 % of control
- cAMP release, % activity with respect to control, at 10 nM (human GLP-1 receptor): 80 % of control
- cAMP release, % activity with respect to control, at 100 nM (human GLP-1 receptor): 88 % of control
- cAMP release, % activity with respect to control, at 1 µM (human GLP-1 receptor): 96 % of control
- cAMP release, % activity with respect to control, at 10 µM (human GLP-1 receptor): 99 % of control
B6: Seq. ID. No. 59 (peptide)
peptide: VH[Aib]QGTFTS[αMeD][αMeBip(OMe)][hhPhe]-NH2

- cAMP release, % activity with respect to control, at 1 nM (human GLP-1 receptor): 40 % of control
- cAMP release, % activity with respect to control, at 10 nM (human GLP-1 receptor): 81 % of control
- cAMP release, % activity with respect to control, at 100 nM (human GLP-1 receptor): 87 % of control
- cAMP release, % activity with respect to control, at 1 µM (human GLP-1 receptor): 95 % of control
- cAMP release, % activity with respect to control, at 10 µM (human GLP-1 receptor): 98 % of control
B8: Seq. ID. No. 68 (peptide)
peptide: VH[αMeP]QGT[αMePhe(2-F)]TS[αMeD][αMeBip(OMe)][hhPhe]-NH2

- cAMP release, % activity with respect to control, at 1 nM (human GLP-1 receptor): 45 % of control
- cAMP release, % activity with respect to control, at 10 nM (human GLP-1 receptor): 84 % of control
- cAMP release, % activity with respect to control, at 100 nM (human GLP-1 receptor): 90 % of control
- cAMP release, % activity with respect to control, at 1 µM (human GLP-1 receptor): 99 % of control
- cAMP release, % activity with respect to control, at 10 µM (human GLP-1 receptor): 99 % of control
B9: Seq. ID. No. 64 (peptide)
peptide: VH[αMeP]EGTFTS[αMeD][αMeBip(OMe)][hhPhe]-NH2

- cAMP release, % activity with respect to control, at 1 nM (human GLP-1 receptor): 38 % of control
- cAMP release, % activity with respect to control, at 10 nM (human GLP-1 receptor): 78 % of control
- cAMP release, % activity with respect to control, at 100 nM (human GLP-1 receptor): 86 % of control
- cAMP release, % activity with respect to control, at 1 µM (human GLP-1 receptor): 95 % of control
- cAMP release, % activity with respect to control, at 10 µM (human GLP-1 receptor): 98 % of control
B13: Seq. ID. No. 49 (peptide)
peptide: VHSQGT[αMePhe(2,6-F2)]T[αMeS]D[αMeBip(OMe)][hhPhe]-NH2

- cAMP release, % activity with respect to control, at 1 nM (human GLP-1 receptor): 38 % of control
- cAMP release, % activity with respect to control, at 10 nM (human GLP-1 receptor): 77 % of control
- cAMP release, % activity with respect to control, at 100 nM (human GLP-1 receptor): 85 % of control
- cAMP release, % activity with respect to control, at 1 µM (human GLP-1 receptor): 94 % of control
- cAMP release, % activity with respect to control, at 10 µM (human GLP-1 receptor): 97 % of control
B14: Seq. ID. No. 88 (peptide)
peptide: VHAEGTFTSD[Bip(2'-Et-4'-OMe)][αMeAPPA]
modifications: not fully specified (C-terminus); printed as VHAEGTFTSD-Bip(OMe)-(αMe-APPA); reading uncertain

- cAMP release, % activity with respect to control, at 1 nM (human GLP-1 receptor): 66 % of control
- cAMP release, % activity with respect to control, at 10 nM (human GLP-1 receptor): 97 % of control
- cAMP release, % activity with respect to control, at 100 nM (human GLP-1 receptor): 99 % of control
- cAMP release, % activity with respect to control, at 1 µM (human GLP-1 receptor): 99 % of control
- cAMP release, % activity with respect to control, at 10 µM (human GLP-1 receptor): 99 % of control
B15: Seq. ID. No. 76 (peptide)
peptide: VH[αMeP]QGT[αMePhe(2,6-F2)]TS[αMeD][αMeBip(OMe)][hhPhe]
modifications: not fully specified (C-terminus)
